Test [1] deals with SpaKC-SpaF complex (S. sparsogenes ATCC 25498). In words: MST.
The target of test [2] is SpaKC, class III lanthipeptide synthetase (LanKC) homolog from S. sparsogenes ATCC 25498 (S. sparsogenes ATCC 25498). In words: MST.
In test [3] the target is SpaF, FMN-dependent cysteine decarboxylase of the spa gene cluster (S. sparsogenes ATCC 25498). In words: crystal structure.

This passage reports Kd and stoichiometry N results from paper doi:10.1101/2020.08.21.260323.

The Kd is the free concentration of one partner at which half of the binding sites on the other are occupied at equilibrium, for simple one-to-one binding. Read a low Kd as higher affinity. Broadly, the stoichiometry N is a count of units in the complex or per binding partner.

As for SpaA precursor peptide, the Kd in test [1] worked out at 0.094 µM; in test [2], 0.217 µM.

The substance SpaA leader peptide had a Kd in test [2] of 0.275 µM.

As to “TvaF, cysteine decarboxylase from thioviridamide biosynthesis (enzyme)”, the Kd in test [2] is 2.27 µM.

In test [2], “SpaF, FMN-dependent cysteine decarboxylase of the spa gene cluster (enzyme)” gave a Kd of 0.182 µM. The stoichiometry N in test [3] is 12.
